Assay results: patent publication US20080267971A1 (published 2008)
Values belong to the binder of their own block, whether it stands above or below them.

B4: human Angiopoietin-1 (ligand)
chain: SNQRRSPENSGRRYNRIQHGQCAYTFILPEHDGNCRESTTDQYNTNALQRDAPHVEPDFSSQKLQHLEHVMENYTQWLQKLENYIVENMKSEMAQIQQNAVQNHTATMLEIGTSLLSQTAEQTRKLTDVETQVLNQTSRLEIQLLENSLSTYKLEKQLLQQTNEILKIHEKNSLLEHKILEMEGKHKEELDTLKEEKENLQGLVTRQTYIIQELEKQLNRATTNNSVLQKQQLELMDTVHNLVNLCTKEVLLKGGKREEEKPFRDCADVYQAGFNKSGIYTIYINNMPEPKKVFCNMDVNGGGWTVIQHREDGSLDFQRGWKEYKMGFGNPSGEYWLGNEFIFAITSQRQYMLRIELMDWEGNRAYSQYDRFHIGNEKQNYRLYLKGHTGTAGKQSSLILHGADFSTKDADNDNCMCKCALMLTGGWWFDACGPSNLNGMFYTAGQNHGKLNGIKWHYFKGPSYSLRSTTMMIRPLDF
notes: Bought recombinant protein (R&D Systems 293-AN-025/CF) or supernatant of transfected 293F cells; also called Ang-1; recombinant Ang-1

Tests used:
[1] = molecular target: B4; test: capture ELISA
Procedure: The binding of the top 27 human monoclonal antibodies was detected with a HRP-conjugated goat anti-human antibody, followed by colorimetric horseradish peroxidase substrate (Enhanced K-Blue TMB substrate Neogen Corporation). The absorbance of each well of the ELISA plates was measured at 450 nm on a microplate autoreader.

[2] = molecular target: T1, mouse Angiopoietin-2 (mouse, UniProt O35608 19-496); test: ELISA, recombinant mouse Ang-2
T1 construct: Used as conditioned medium of transfectants; also called mAng-2; mouse Ang-2
T1 sequence: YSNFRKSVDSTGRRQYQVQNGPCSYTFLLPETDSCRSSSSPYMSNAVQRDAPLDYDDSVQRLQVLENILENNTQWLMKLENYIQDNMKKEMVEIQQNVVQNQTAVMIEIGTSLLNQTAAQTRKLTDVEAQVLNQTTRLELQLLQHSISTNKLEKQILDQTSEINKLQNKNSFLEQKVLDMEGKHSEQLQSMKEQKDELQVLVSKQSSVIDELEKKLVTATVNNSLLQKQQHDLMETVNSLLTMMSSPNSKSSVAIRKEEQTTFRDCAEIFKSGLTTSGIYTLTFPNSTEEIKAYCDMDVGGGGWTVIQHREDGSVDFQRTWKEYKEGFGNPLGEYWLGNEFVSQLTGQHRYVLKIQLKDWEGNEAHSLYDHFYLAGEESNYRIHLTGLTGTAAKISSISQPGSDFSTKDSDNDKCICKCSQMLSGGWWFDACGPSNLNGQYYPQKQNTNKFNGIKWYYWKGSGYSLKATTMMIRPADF

[3] = molecular target: T2, human Angiopoietin-2 (human, UniProt O15123 19-496); test: Biacore; kd held constant (*)
T2 construct: Mostly bought recombinant protein (R&D Systems 623-AM/CF, 623-AN; biotinylated BT623) or supernatant of transfected 293F cells; also called Ang-2; rhAng-2
T2 sequence: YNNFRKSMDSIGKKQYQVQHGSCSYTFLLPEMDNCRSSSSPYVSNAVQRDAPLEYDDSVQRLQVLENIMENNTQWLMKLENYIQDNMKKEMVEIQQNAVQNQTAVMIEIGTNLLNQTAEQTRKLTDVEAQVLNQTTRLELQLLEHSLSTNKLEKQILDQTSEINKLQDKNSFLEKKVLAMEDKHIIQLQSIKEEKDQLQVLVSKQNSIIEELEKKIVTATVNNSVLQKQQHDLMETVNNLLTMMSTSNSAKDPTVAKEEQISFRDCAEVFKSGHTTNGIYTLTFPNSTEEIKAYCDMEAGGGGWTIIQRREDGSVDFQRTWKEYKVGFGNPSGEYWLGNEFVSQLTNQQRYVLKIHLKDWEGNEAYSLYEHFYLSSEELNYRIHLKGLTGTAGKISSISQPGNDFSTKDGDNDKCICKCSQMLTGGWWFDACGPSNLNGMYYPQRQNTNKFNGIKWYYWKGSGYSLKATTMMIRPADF
Procedure: (§1) The label-free surface plasmon resonance (SPR), or Biacore, was utilized to measure the antibody affinity to the antigen. For this purpose, a high-density goat anti-human antibody surface over a CM5 Biacore chip was prepared using routine amine coupling. All the purified mAbs were diluted to approximately 8 μg/ml in HBS-P running buffer containing 100 μg/ml BSA and 10 mg/mL carboxymethyldextran. Each mAb was captured on a separate surface using a 42-second contact time, and a 5-minute wash for stabilization of the mAb baseline.
(§2) Data were fit globally to a 1:1 interaction model to determine the binding kinetics.

[4] = molecular target: T3, human Ang-2 V345M (human, UniProt O15123 19-496); test: ELISA
T3 sequence: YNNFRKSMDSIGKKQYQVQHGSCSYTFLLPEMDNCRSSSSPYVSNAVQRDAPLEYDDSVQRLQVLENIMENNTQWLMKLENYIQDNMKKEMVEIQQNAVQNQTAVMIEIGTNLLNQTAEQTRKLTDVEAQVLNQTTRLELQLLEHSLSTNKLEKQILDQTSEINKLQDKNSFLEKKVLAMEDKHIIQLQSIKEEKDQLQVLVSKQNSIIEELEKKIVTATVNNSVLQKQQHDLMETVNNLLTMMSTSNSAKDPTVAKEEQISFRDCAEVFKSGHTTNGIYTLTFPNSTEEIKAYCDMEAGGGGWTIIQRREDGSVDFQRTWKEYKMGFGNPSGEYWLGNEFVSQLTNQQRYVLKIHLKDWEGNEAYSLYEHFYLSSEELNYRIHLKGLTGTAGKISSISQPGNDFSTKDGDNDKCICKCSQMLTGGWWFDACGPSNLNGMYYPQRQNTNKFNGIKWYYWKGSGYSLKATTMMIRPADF

[5] = molecular target: T4, human Ang-2 H375Q (human, UniProt O15123 19-496); test: ELISA
T4 sequence: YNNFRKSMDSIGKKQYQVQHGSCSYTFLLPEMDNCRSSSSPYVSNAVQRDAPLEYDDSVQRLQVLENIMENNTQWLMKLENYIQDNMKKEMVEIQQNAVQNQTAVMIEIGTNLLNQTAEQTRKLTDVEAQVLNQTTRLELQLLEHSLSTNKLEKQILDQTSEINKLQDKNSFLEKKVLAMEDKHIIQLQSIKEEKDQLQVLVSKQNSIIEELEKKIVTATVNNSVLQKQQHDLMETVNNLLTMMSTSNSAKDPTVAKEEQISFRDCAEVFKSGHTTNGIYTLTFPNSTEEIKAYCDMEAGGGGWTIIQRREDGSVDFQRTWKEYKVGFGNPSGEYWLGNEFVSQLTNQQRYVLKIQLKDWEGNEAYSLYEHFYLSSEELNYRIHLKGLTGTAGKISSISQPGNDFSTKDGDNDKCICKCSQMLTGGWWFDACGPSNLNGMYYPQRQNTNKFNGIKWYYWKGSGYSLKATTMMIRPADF

[6] = molecular target: T5, Human Ang-1/2 BsmI chimeric molecule (human); test: ELISA
T5 chain: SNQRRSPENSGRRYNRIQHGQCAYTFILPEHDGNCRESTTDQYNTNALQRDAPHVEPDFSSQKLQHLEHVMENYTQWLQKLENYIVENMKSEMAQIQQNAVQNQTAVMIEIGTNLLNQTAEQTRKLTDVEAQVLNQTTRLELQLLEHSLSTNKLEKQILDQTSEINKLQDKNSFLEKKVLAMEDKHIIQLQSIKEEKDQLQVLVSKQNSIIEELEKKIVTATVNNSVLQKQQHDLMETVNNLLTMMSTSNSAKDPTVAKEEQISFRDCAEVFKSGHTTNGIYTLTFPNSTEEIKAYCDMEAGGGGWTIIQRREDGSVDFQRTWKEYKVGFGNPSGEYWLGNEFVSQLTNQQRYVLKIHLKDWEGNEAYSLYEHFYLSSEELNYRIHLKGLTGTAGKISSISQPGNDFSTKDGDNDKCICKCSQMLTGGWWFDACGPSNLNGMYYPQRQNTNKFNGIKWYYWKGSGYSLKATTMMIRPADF

[7] = molecular target: T6, human Ang-2443 (human, UniProt O15123 19-496); test: ELISA
T6 construct: Splice variant missing amino acids 96-148; supernatant of transfected 293F cells
T6 sequence: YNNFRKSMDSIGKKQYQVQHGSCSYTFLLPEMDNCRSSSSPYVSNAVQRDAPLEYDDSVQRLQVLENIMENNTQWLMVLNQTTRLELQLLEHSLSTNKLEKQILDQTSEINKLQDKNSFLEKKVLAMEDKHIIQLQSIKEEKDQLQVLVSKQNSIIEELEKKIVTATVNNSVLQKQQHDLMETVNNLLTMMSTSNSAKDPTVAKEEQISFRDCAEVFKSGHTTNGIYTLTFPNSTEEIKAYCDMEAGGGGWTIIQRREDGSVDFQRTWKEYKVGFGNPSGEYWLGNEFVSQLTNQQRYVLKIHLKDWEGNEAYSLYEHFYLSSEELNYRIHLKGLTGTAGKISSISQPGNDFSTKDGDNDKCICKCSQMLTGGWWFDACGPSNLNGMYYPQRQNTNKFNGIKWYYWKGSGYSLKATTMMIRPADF

[8] = molecular target: T2, human Angiopoietin-2; test: Biacore, mAb captured
Procedure: as §1, §2

[9] = molecular target: T2, human Angiopoietin-2; test: inhibition of rhAng-2 binding to its receptor
[10] = molecular target: T7, recombinant human Tie2/Fc fusion protein (human, UniProt Q02763 23-745); test: FACS competition: binding of His-tagged recombinant human Ang-1 to Tie2 on HEK293F/Tie2 transfectants, soluble Tie2/Fc titrated, n = 3
T7 construct: Bought fusion protein; also called hTie2/Fc; soluble Tie2/Fc
T7 sequence (Q02763 23-745 limits assumed): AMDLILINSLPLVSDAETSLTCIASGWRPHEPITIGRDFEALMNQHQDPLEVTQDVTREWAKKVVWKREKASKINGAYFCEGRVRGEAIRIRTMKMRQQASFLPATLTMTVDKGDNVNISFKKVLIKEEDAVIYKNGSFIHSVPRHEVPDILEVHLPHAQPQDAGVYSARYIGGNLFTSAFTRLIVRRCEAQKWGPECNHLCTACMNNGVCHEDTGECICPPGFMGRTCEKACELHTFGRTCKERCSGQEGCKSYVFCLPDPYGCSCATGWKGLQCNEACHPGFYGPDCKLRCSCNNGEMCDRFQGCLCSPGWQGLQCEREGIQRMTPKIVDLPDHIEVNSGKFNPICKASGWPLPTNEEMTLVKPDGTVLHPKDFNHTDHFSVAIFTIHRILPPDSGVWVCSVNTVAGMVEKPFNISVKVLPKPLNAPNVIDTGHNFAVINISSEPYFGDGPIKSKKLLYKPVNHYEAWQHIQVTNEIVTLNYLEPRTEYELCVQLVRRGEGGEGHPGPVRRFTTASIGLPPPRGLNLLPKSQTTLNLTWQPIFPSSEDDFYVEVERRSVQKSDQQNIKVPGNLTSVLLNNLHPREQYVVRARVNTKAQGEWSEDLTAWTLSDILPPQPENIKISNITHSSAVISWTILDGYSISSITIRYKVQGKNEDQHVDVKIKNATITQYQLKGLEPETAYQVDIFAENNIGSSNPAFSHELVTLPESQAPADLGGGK
Procedure: Cell suspension of 4 million cells/mL in FACS Buffer were prepared, and then aliquoted to a 96-well polypropylene plate with 50 ul per well. […] Cells were washed by centrifuging the plate at 1,200 rpm for 5 minutes, removing the supernatant by aspirating, and resuspending the cells with 200 ul per well of FACS Buffer. Washing procedures were repeated twice. The cells were then suspended with 100 ul of mouse Anti-6×-Histidine antibody diluted to 2 ug/ml in FACS Buffer, and incubated at room temperature for 30 minutes. After washing, the cells were suspended in 100 ul of PE-conjugated goat anti-mouse-IgG, which was diluted 1:100 in FACS Buffer, for incubation at room temperature for 30 minutes. The volume of the samples were brought to 300 ul with FACS Buffer, and measured with FACS Calibur.

binding result [1]: no binding
binding result [2]: no binding
B1: mAb 5.41.1 (antibody, V domains shown)
VH: EVQLVESGGGLVQPGGSLRLSCAASGFTFSSYWMSWVRQAPGKGLEWVANIKEDGSEKYYVDSVKGRFTISRDNAKNSLYLQMNSLRAEDTAVFYCARDRSSGFFDYWGQGTLVTVSS
VL: EIVMTQSPATLSVSPGERATLSCRASQSVSSNLAWYQQKPGQAPRFLIYGASTRATGIPARFSGSGSGTEFTLTISSLQSEDFAVYYCQQYNHWWTFGQGTKVEIKR
notes: Human hybridoma IgG (XenoMouse); also called x5.41

binding result [1]: no binding
binding result [2]: no binding
B2: mAb 5.16.3 (antibody, V domains shown)
VH: QVQLVQSGAEVKKPGASVKVSCKASGYTFTGFYMYWVRQAPGQGLEWMGWINPNSSGTNHAQKFQGRVTMTRDTSISTAYMELSRLRSDDTAVYYCARDQDIATAGPFDYWGQGTLVTVSS
VL: EIVMTQSPATLSVSPGERATLSCRASQSVSSNLAWYQQKPGQAPRLLIFGASTRATGIPARFSGSGSGTEFTLTISSLQSEDFAVYYCQQYNNWWTFGRGTKVEIKR
notes: Human hybridoma IgG (XenoMouse); also called x5.16

koff [3]: ≤ 1e-05 s⁻¹
binding result [1]: no binding
% of binding to human Ang-2 [4]: 100%
% of binding to human Ang-2 [5]: 100%
% of binding to human Ang-2 [6]: 100%
% of binding to human Ang-2 [7]: 100%
Kd [8]: ≤ 0.073 nM
kon [8]: 140000 M⁻¹ s⁻¹
OD650 in inhibition assay [9]: 0.0617 OD650
B3: mAb 6.3.1 (antibody, V domains shown)
VH: QVQLVQSGAEVKKPGASVKVSCKASGYTFTGYFMHWVPQAPGQGLEWMGWINPNSGGTNYAQNFQGRVTMTRDTSISTAYMELSRLRSDDTPVYYCARDPWQNWNSYFDYWGQGTLVTVSS
VL: DIQMTQSPSSLSASVGDRVTITCRASQSIRSYLNWYQQKPGKAPKVLIYAASSLQSGVPSRFSGSGSGTDFTLTISSLQPEDFATYYCQQSYSTLCSFGQGTKLEIKR
notes: Human hybridoma IgG (XenoMouse); also called x6.3

Binder: B4
binding result [10]: binds
